B1: Tyrosine-protein phosphatase non-receptor type 1 (Homo sapiens), P18031 (parent)
chain: MEMEKEFEQIDKSGSWAAIYQDIRHEASDFPCRVAKLPKNKNRNRYRDVSPFDHSRIKLHQEDNDYINASLIKMEEAQRSYILTQGPLPNTCGHFWEMVWEQKSRGVVMLNRVMEKGSLKCAQYWPQKEEKEMIFEDTNLKLTLISEDIKSYYTVRQLELENLTTQETREILHFHYTTWPDFGVPESPASFLNFLFKVRESGSLSPEHGPVVVHCSAGIGRSGTFCLADTCLLLMDKRKDPSSVDIKKVLLEMRKFRMGLIQTADQLRFSYLAVIEGAKFIMGDSSVQDQWKELSHEDLEPPPEHIPPPPRPPKRILEPHNGKCREFFPNHQWVKEETQEDKDCPIKEEKGSPLNAAPYGIESMSQDTEVRSRVVGGSLRGAQAASPAKGEPSLPEKDEDHALSYWKPFLVNMCVATVLTAGAYLCYRFLFNSNT
partner: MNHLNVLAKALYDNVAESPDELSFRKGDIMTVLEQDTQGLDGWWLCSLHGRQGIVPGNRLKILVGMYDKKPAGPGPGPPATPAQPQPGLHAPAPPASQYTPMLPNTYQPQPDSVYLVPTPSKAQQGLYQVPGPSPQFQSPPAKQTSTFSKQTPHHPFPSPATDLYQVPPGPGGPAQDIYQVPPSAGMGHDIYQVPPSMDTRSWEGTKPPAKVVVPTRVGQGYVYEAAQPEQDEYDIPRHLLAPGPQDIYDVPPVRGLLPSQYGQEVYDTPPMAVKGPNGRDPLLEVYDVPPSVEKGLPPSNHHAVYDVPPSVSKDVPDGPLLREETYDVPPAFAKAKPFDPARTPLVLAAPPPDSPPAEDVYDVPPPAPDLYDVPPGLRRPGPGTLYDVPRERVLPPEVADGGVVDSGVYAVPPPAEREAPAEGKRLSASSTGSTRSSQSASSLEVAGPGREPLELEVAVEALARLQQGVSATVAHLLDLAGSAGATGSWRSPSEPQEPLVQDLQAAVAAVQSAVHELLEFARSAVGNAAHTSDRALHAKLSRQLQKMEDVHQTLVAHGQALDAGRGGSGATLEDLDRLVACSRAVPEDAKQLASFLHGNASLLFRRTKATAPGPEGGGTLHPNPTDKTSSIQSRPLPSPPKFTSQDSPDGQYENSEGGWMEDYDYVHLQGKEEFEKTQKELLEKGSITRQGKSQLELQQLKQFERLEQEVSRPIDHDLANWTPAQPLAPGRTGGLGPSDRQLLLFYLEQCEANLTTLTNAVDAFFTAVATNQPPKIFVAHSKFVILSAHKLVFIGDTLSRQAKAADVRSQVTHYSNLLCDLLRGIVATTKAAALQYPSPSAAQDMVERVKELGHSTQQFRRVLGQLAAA
B2: Tyrosine-protein phosphatase non-receptor type 1 (Homo sapiens), P18031 (parent)
chain: B1 chain
partner: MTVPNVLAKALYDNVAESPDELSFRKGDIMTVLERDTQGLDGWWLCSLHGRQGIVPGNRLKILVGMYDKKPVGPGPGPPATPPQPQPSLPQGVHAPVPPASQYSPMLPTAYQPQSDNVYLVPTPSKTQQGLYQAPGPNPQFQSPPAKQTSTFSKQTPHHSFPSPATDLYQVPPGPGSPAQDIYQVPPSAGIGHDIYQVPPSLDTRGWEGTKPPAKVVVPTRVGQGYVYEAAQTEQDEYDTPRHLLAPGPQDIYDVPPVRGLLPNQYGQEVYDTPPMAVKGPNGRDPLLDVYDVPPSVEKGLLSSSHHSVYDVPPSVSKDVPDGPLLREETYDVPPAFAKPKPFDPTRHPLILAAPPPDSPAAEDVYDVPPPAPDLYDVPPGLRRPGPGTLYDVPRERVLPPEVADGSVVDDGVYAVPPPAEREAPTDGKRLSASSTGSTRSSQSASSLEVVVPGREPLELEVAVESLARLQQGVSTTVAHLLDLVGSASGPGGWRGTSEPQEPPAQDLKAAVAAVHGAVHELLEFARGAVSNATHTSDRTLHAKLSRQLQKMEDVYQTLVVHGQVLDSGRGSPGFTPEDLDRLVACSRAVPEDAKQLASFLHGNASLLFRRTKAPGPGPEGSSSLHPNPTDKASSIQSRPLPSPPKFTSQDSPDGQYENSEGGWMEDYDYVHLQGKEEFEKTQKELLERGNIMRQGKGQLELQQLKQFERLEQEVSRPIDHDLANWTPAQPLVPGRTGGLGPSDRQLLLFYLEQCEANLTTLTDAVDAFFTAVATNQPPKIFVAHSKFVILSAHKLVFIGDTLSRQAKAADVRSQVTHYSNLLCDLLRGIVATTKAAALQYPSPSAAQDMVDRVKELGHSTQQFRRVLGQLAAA
B3: Tyrosine-protein phosphatase non-receptor type 1 (Homo sapiens), P18031 (parent)
chain: B1 chain

Variants of: B1
Conditions: with bcar1_human BCAR1, P56945

Variant | effect of a mutation on the interaction
P309A | disrupting interaction
P310A | disrupting interaction

Variants of: B2
Conditions: with bcar1_mouse Bcar1, Q61140

Variant | effect of a mutation on the interaction
C215S | disrupting interaction

Variants of: B2
Conditions: with bcar1_mouse Bcar1, Q61140
Remark: another data set of the same source

Variant | effect of a mutation on the interaction
P310A | disrupting interaction
P309A | disrupting interaction

Variants of: B3
Conditions: with paxi_mouse Pxn

Variant | effect of a mutation on the interaction
C215S | disrupting interaction

Variants of: B3
Conditions: with fak1_mouse Ptk2, P34152
Sequence of fak1_mouse Ptk2, P34152 (P34152 whole entry): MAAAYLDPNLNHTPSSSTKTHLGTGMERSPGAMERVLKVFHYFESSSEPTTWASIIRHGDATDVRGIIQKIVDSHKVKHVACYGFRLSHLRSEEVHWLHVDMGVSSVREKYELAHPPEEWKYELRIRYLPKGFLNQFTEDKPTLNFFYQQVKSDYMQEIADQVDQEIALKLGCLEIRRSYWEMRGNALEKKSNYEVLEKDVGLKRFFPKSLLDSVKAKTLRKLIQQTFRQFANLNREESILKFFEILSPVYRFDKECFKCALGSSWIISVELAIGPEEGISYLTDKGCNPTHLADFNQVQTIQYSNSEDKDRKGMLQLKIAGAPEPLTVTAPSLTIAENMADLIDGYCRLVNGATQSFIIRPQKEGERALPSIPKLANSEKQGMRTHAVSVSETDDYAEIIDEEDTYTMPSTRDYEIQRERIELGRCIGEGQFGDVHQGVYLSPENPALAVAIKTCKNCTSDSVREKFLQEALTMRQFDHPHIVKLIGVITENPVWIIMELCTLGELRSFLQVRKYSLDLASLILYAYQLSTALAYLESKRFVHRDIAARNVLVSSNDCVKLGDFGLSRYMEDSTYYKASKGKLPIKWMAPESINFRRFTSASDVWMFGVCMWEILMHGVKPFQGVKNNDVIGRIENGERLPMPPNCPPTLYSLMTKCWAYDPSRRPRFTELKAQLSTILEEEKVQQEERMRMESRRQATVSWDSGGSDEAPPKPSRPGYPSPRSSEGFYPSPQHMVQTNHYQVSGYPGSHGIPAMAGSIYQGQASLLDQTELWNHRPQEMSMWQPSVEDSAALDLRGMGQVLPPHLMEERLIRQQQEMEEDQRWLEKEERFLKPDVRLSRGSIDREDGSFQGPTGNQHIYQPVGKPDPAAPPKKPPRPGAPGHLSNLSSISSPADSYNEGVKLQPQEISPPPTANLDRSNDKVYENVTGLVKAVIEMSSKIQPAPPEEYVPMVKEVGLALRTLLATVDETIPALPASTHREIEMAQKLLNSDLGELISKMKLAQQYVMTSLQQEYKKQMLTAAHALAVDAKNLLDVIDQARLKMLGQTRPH

Variant | effect of a mutation on the interaction
C215S | disrupting interaction

Variants of: B3
Conditions: with paxi_mouse Pxn
Remark: another data set of the same source

Variant | effect of a mutation on the interaction
P309A | disrupting interaction
P310A | disrupting interaction

Variants of: B3
Conditions: with fak1_mouse Ptk2, P34152
Remark: another data set of the same source

Variant | effect of a mutation on the interaction
P309A | disrupting interaction
P310A | disrupting interaction
